B1: ZNF263 (parent)
chain: CSECGESFSRSSRLMSHQRTHTG
B2: ETS1 (parent)
chain: FSEPSFITESYQTLHPISSEELLS
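Note: lentivirally expressed fusions sorted by FACS into six bins by GFP to DsRed ratio, PSI derived from sequencing read proportions per bin multiplied by bin number.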

In the first data set the parent is B1. Nature of the data set: protein stability index of a GFP-peptide fusion (GPS, HEK-293T) (PSI 1-6); higher = more stable. The conditions noted are these: c terminus: native.
Regarding CSECGESFSRSSRLMSHQRYHTG, the protein stability index turned out to be 2.08.

With CSECGESFSRSSRLMSHQRHHTG, the protein stability index was determined as 3.72.

In the case of CSECGESFSRSSRLMSHQRSHTG, the protein stability index came to 2.44. As to CSECGESFSRSSRLMSHQRAHTG, the protein stability index came to 3.7. On the same count and under the same terms, in the case of CSECGESFSRSSRLMSHQREHTG it was 2.45; in that of CSECGESFSRSSRLMSHQRLHTG, 3.21; in that of CSECGESFSRSSRLMSHQRVHTG, 2.9. The same measure, in the same setting: the value for CSECGESFSRSSRLMSHQRIHTG was 4.43; that for CSECGESFSRSSRLMSHQRNHTG was 1.93. On the same count and under the same terms, in the case of CSECGESFSRSSRLMSHQRMHTG it was 1.95; in that of CSECGESFSRSSRLMSHQRCHTG, 2.35. For the variant CSECGESFSRSSRLMSHQRFHTG, the protein stability index was 2.48. On the same count and under the same terms, in the case of CSECGESFSRSSRLMSHQRDHTG it was 3.75. The same measure, in the same setting: in the case of CSECGESFSRSSRLMSHQRQHTG it was 3.26. Same read-out and setting: in the case of CSECGESFSRSSRLMSHQRGHTG it was 2.96; in that of CSECGESFSRSSRLMSHQRKHTG, 3.72; in that of CSECGESFSRSSRLMSHQRWHTG, 1.92. For CSECGESFSRSSRLMSHQRTFTG, the protein stability index turned out to be 2.47.

In the case of CSECGESFSRSSRLMSHQRTWTG, the protein stability index stood at 1.87.

With CSECGESFSRSSRLMSHQRTKTG, the protein stability index turned out to be 1.78.

As to CSECGESFSRSSRLMSHQRTCTG, the protein stability index came to 2.72. Still for that read-out and setting: the value for CSECGESFSRSSRLMSHQRTGTG was 3.01; that for CSECGESFSRSSRLMSHQRTSTG was 2.74. Still for that read-out and setting: in the case of CSECGESFSRSSRLMSHQRTMTG it was 1.45; in that of CSECGESFSRSSRLMSHQRTETG, 2.15; in that of CSECGESFSRSSRLMSHQRTYTG, 2.64.

Turning to CSECGESFSRSSRLMSHQRTDTG, the protein stability index is 3.31. Same read-out and setting: in the case of CSECGESFSRSSRLMSHQRTNTG it was 2.4; in that of CSECGESFSRSSRLMSHQRTLTG, 2.52. Still for that read-out and setting: the value for CSECGESFSRSSRLMSHQRTTTG was 1.6; that for CSECGESFSRSSRLMSHQRTHVG was 3.03.

In the case of CSECGESFSRSSRLMSHQRTHMG, the protein stability index worked out at 3.83. The same measure, in the same setting: the value for CSECGESFSRSSRLMSHQRTHWG was 2.25. For the variant CSECGESFSRSSRLMSHQRTHYG, the protein stability index stood at 2.25.

CSECGESFSRSSRLMSHQRTHIG: the protein stability index was 2.95. The same measure, in the same setting: the value for CSECGESFSRSSRLMSHQRTHAG was 2.03. Take CSECGESFSRSSRLMSHQRTHSG: the protein stability index stood at 2.23. Still for that read-out and setting: the value for CSECGESFSRSSRLMSHQRTHNG was 2.29; that for CSECGESFSRSSRLMSHQRTHLG was 4.2; that for CSECGESFSRSSRLMSHQRTHFG was 3.75. The same measure, in the same setting: in the case of CSECGESFSRSSRLMSHQRTHEG it was 3.76; in that of CSECGESFSRSSRLMSHQRTHCG, 2.08. Still for that read-out and setting: in the case of CSECGESFSRSSRLMSHQRTHDG it was 4.27; in that of CSECGESFSRSSRLMSHQRTHQG, 2.43. With CSECGESFSRSSRLMSHQRTHTP, the protein stability index was determined as 4.52.

Take CSECGESFSRSSRLMSHQRTHTC: the protein stability index stood at 3.33. On to CSECGESFSRSSRLMSHQRTHTW, for which the protein stability index came out at 3.79. Same read-out and setting: in the case of CSECGESFSRSSRLMSHQRTHTA it was 2.97; in that of CSECGESFSRSSRLMSHQRTHTH, 3.59.

Regarding CSECGESFSRSSRLMSHQRTHTF, the protein stability index stood at 3.74. On the same count and under the same terms, in the case of CSECGESFSRSSRLMSHQRTHTY it was 3.29. Still for that read-out and setting: in the case of CSECGESFSRSSRLMSHQRTHTS it was 4; in that of CSECGESFSRSSRLMSHQRTHTM, 4.34; in that of CSECGESFSRSSRLMSHQRTHTR, 4.2.

In the case of CSECGESFSRSSRLMSHQRTHTK, the protein stability index was determined as 4.89. The same measure, in the same setting: the value for CSECGESFSRSSRLMSHQRTHTT was 4.04; that for CSECGESFSRSSRLMSHQRTHTV was 3.56. Still for that read-out and setting: in the case of CSECGESFSRSSRLMSHQRTHTE it was 4.44; in that of CSECGESFSRSSRLMSHQRTHTI, 4.41; in that of CSECGESFSRSSRLMSHQRTHTQ, 4.16. The same measure, in the same setting: in the case of CSECGESFSRSSRLMSHQRTHTL it was 4.69. As for CSECGESFSRSSRLMSHQRTHTN, the protein stability index was 4.85.

The variants in another data set derive from B2. Described as above. The conditions noted are these: c terminus: a fixed tail appended.
In the case of FPEPSFITESYQTLHPISSEELLS, the protein stability index turned out to be 1.95.

For FKEPSFITESYQTLHPISSEELLS, the protein stability index amounted to 3.34. Still for that read-out and setting: in the case of FDEPSFITESYQTLHPISSEELLS it was 4.15; in that of FYEPSFITESYQTLHPISSEELLS, 2.62. On to FIEPSFITESYQTLHPISSEELLS, for which the protein stability index stood at 3.17. In the case of FAEPSFITESYQTLHPISSEELLS, the protein stability index was 2.42. For the variant FCEPSFITESYQTLHPISSEELLS, the protein stability index turned out to be 2.38. Still for that read-out and setting: the value for FVEPSFITESYQTLHPISSEELLS was 2.42; that for FWEPSFITESYQTLHPISSEELLS was 2.1. On the same count and under the same terms, in the case of FLEPSFITESYQTLHPISSEELLS it was 1.49. Regarding FHEPSFITESYQTLHPISSEELLS, the protein stability index worked out at 2.46. On the same count and under the same terms, in the case of FEEPSFITESYQTLHPISSEELLS it was 3.98; in that of FFEPSFITESYQTLHPISSEELLS, 2.26. On the same count and under the same terms, the value for FMEPSFITESYQTLHPISSEELLS was 1.72. The same measure, in the same setting: the value for FQEPSFITESYQTLHPISSEELLS was 1.65; that for FTEPSFITESYQTLHPISSEELLS was 1.95.

Turning to FGEPSFITESYQTLHPISSEELLS, the protein stability index is 2.63. Regarding FREPSFITESYQTLHPISSEELLS, the protein stability index worked out at 2.66. For FNEPSFITESYQTLHPISSEELLS, the protein stability index amounted to 3.37.

For the variant FSEPSAITESYQTLHPISSEELLS, the protein stability index was determined as 4. In the case of FSEPSGITESYQTLHPISSEELLS, the protein stability index amounted to 3.85.

Take FSEPSIITESYQTLHPISSEELLS: the protein stability index stood at 3.15. On the same count and under the same terms, the value for FSEPSVITESYQTLHPISSEELLS was 3.23; that for FSEPSHITESYQTLHPISSEELLS was 4.14; that for FSEPSSITESYQTLHPISSEELLS was 4.2.

With FSEPSDITESYQTLHPISSEELLS, the protein stability index was 4.8.

Regarding FSEPSLITESYQTLHPISSEELLS, the protein stability index worked out at 3.22.

For FSEPSWITESYQTLHPISSEELLS, the protein stability index amounted to 2.27. On the same count and under the same terms, the value for FSEPSCITESYQTLHPISSEELLS was 3.36.

For the variant FSEPSKITESYQTLHPISSEELLS, the protein stability index turned out to be 3.58. Still for that read-out and setting: in the case of FSEPSMITESYQTLHPISSEELLS it was 3.48; in that of FSEPSYITESYQTLHPISSEELLS, 2.74; in that of FSEPSNITESYQTLHPISSEELLS, 4.57.

(Values after the supplement of paper PMC10567573.)
